± gives the half width of the 95% confidence interval.
Experiments:
[1] = folding stability dG unfold from trypsin proteolysis; higher = more stable
Procedure, shortened: (§1)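 Digests were run with trypsin and chymotrypsin at 11 concentrations in threefold dilutions, plus a no-protease condition, on designed mini-proteins in a PA-tagged cDNA display construct. The mini-proteins were under 80 residues, had no cysteine, and were kept only when AlphaFold2 dimer inter-PAE was above 15. After sequencing, Bayesian fitting of the counts gave K50, from which unfolding free energy was derived against a sequence-predicted unfolded-state K50 and a shared folded-state K50, per protease or combined.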

[2] = folding stability dG unfold (combined trypsin and chymotrypsin); higher = more stable
Procedure, shortened: as §1

[3] = folding stability dG unfold from chymotrypsin proteolysis; higher = more stable
Procedure, shortened: as §1

Row | Sequence | folding stability dG unfold [1] | folding stability dG unfold [2] | folding stability dG unfold [3]
1 | SAGGSAGGSAGGKFEIVEVKEEYTLPNGKKVKVFTVKNKDTGKEITFIVDSNGNLKPYPSAGGSAGGSAGGS [r10_1123_TrROS_Hall] | 2.72 ± 0.13 kcal/mol | 2.65 ± 0.11 kcal/mol | 2.602 ± 0.025 kcal/mol
2 | SAGGSAGGSAGGKFKIVKVEKVKNENGEEYVRVYLYNKDGKPVKEFTMSKEELEKLLKELSAGGSAGGSAGG [r7_891_TrROS_Hall] | 2.72 ± 0.11 kcal/mol | 2.88 ± 0.15 kcal/mol | 2.96 ± 0.051 kcal/mol
3 | SAGGSAGGSAGGKFKPGQTIKIKLKVKVKVNGKEYEFEKELEIKIKPKVTMSEEELKKKSAGGSAGGSAGGS [r10_175_TrROS_Hall] | 0.169 ± 0.16 kcal/mol | 1.39 ± 0.26 kcal/mol | 2.12 ± 0.09 kcal/mol
4 | SAGGSAGGSAGGKGKKVTIEIHFFFKSPQEMKHWANTLAKELPGLDVEIKVEWIPLEDMKSAGGSAGGSAGG [r7_465_TrROS] | 2.06 ± 0.14 kcal/mol | 2.75 ± 0.29 kcal/mol | 3.26 ± 0.14 kcal/mol
5 | SAGGSAGGSAGGKIIEVKEENGEVYLLVEVDGKKEVIKFPKGAKLEEIKVDVKEVKVLKPSAGGSAGGSAGG [r7_373_TrROS_Hall] | -0.0364 ± 0.065 kcal/mol | 0.539 ± 0.12 kcal/mol | 0.563 ± 0.1 kcal/mol
6 | SAGGSAGGSAGGKIKVPPGAIILVETESGEWKEIKPGDEIELKNSKVYIFNENGEKIELPSAGGSAGGSAGG [r7_54_TrROS_Hall] | 0.82 ± 0.11 kcal/mol | 1.28 ± 0.18 kcal/mol | 1.28 ± 0.092 kcal/mol
7 | SAGGSAGGSAGGKIVIELPKELEGLTAEELAELLKKEFGEKGLKVTVVEKDGKLYLVIDSAGGSAGGSAGGS [r10_579_TrROS_Hall] | 3.43 ± 0.25 kcal/mol | 3.5 ± 0.24 kcal/mol | 3.34 ± 0.15 kcal/mol
8 | SAGGSAGGSAGGKIVKIEFDKETKEIKITLPNGKKITISKEDLKNMKIEIKVYPKKKKKKSAGGSAGGSAGG [r7_98_TrROS_Hall] | 0.774 ± 0.093 kcal/mol | 1.8 ± 0.35 kcal/mol | 2.45 ± 0.1 kcal/mol
9 | SAGGSAGGSAGGKKIIIVVPKEEMTEEELKKLIEELPPGEEIEIEIIVVPPPPPPPKEKKSAGGSAGGSAGG [r7_979_TrROS_Hall] | 0.385 ± 0.077 kcal/mol | 1.45 ± 0.27 kcal/mol | 1.92 ± 0.23 kcal/mol
10 | SAGGSAGGSAGGKKITIKNENGETFTVTEIVKYDEETKEFYIKVEVNGKTYLFKVNLEDLSAGGSAGGSAGG [r7_236_TrROS_Hall] | 1.81 ± 0.059 kcal/mol | 3.2 ± 0.05 kcal/mol | 3.572 ± 0.024 kcal/mol
11 | SAGGSAGGSAGGKKKIKVKVTVYNKNGKPVAEFEFEFETEEEALEAAKKLGLPVRVEKESAGGSAGGSAGGS [r10_958_TrROS_Hall] | 1.71 ± 0.11 kcal/mol | 2.28 ± 0.15 kcal/mol | 2.57 ± 0.069 kcal/mol
12 | SAGGSAGGSAGGKKPKPIKVKVLKYYKNGKIEEKEYTFESPEDLEEFIKANPEVKVLEISSAGGSAGGSAGG [r11_802_TrMRF] | 3.04 ± 0.34 kcal/mol | 4.58 ± 0.17 kcal/mol | 4.76 ± 0.082 kcal/mol
13 | SAGGSAGGSAGGKKTIEIMIFYDPGDPERAKEKARDIANTLQARFPNVTVKITVFRFPNSAGGSAGGSAGGS [r10_223_TrROS] | 1.87 ± 0.074 kcal/mol | 2.25 ± 0.14 kcal/mol | 2.5 ± 0.048 kcal/mol
14 | SAGGSAGGSAGGKKTLKLPVKITPVKDGLLITLPDGTPILVPKNVTVETTDTTAYVTIGSAGGSAGGSAGGS [r10_305_TrMRF] | 0.21 ± 0.067 kcal/mol | 0.0124 ± 0.2 kcal/mol | -0.375 ± 0.28 kcal/mol
15 | SAGGSAGGSAGGKKTVKIEIEMPVEELLKKLKFPEGITSVRIIERDENGYLRIEIEVKLSAGGSAGGSAGGS [r10_352_TrROS_Hall] | 1.55 ± 0.05 kcal/mol | 1.31 ± 0.23 kcal/mol | 1.32 ± 0.078 kcal/mol
16 | SAGGSAGGSAGGKKVIKVKVRIYPVDGSFEEKEVEAESLEELLEKVLEETHPESLIFIGSAGGSAGGSAGGS [r10_145_TrMRF] | 0.912 ± 0.086 kcal/mol | 0.59 ± 0.16 kcal/mol | 0.14 ± 0.067 kcal/mol
17 | SAGGSAGGSAGGKKYEITRILSIEETEDGRIRILIETKTGIIEFDDISEIPPEIRELLGSAGGSAGGSAGGS [r10_748_TrMRF] | 2.82 ± 0.075 kcal/mol | 2.73 ± 0.055 kcal/mol | 2.668 ± 0.021 kcal/mol
18 | SAGGSAGGSAGGKKYKITVPFKTKDGSGKPITSNFGKKKLEEILKKHPELKPAIEKALKKSAGGSAGGSAGG [r7_637_TrMRF] | -0.163 ± 0.33 kcal/mol | 0.771 ± 0.29 kcal/mol | 1.37 ± 0.22 kcal/mol
19 | SAGGSAGGSAGGKKYKPVKKIKVNGKTYTIIKKDGKYIIYDEKTKKKIVIKPGEKIKIKSAGGSAGGSAGGS [r10_559_TrROS_Hall] | 0.621 ± 0.045 kcal/mol | 1.83 ± 0.34 kcal/mol | 2.21 ± 0.034 kcal/mol
20 | SAGGSAGGSAGGKLPPGQPIKATIEIYIFMISYDGGEPKIHEFPITIEHTFRLPDPDALSAGGSAGGSAGGS [r10_745_TrROS] | 2.14 ± 0.086 kcal/mol | 3.42 ± 0.17 kcal/mol | 3.9 ± 0.091 kcal/mol
21 | SAGGSAGGSAGGKLTIVIEGMSEEEVKALAEALRKAGLEIEVTVVPVEVKEPELPEEEKSAGGSAGGSAGGS [r10_361_TrROS_Hall] | 1.57 ± 0.081 kcal/mol | 2.04 ± 0.12 kcal/mol | 2.29 ± 0.053 kcal/mol

From the supplement of paper PMC12764529
